This assay addresses Recombinant Cyclin H (CCNH) protein with a C-HIS tag (human) (UniProt P51946). Briefly: SPR; Biacore T200, 25 °C, 30 μL/min, HBS-EP running buffer; CCNH amine-coupled on a CM5 chip (1200 RU); candidalysin in 1:1 serial dilution, multicycle, association 120 s, dissociation 150 s. (In general: Surface plasmon resonance follows binding to a sensor surface in real time, without labels.)

Sequence of candidalysin (Ece1-III), synthetic peptide (Q07730 62-92 limits assumed): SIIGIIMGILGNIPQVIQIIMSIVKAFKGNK
Sequence of Recombinant Cyclin H (CCNH) protein with a C-HIS tag (human) (P51946 whole entry): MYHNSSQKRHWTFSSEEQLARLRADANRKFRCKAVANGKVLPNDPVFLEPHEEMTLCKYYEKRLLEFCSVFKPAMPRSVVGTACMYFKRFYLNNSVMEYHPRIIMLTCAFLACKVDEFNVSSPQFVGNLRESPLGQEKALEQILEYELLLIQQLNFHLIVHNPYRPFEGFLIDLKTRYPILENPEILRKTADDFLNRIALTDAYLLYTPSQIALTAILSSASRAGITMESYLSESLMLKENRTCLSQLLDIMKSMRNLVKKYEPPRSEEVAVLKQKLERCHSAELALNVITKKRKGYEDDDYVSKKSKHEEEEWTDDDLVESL

Take “candidalysin (Ece1-III), synthetic peptide”: the equilibrium dissociation constant (Kd) is 17.2 nM, the koff worked out at 0.00171 s⁻¹ and the kon worked out at 99200 M⁻¹ s⁻¹.

One may read the Kd as the free concentration of one partner at which half of the binding sites on the other are occupied at equilibrium, for simple one-to-one binding. The koff is a measure of how fast the partners let go of each other. Broadly, the kon is a measure of how fast the partners come together.
